Values of other authors in publication PMC5467299.

Columns and labels:
[1] = target: Plasminogen (Homo sapiens) (UniProt P00747)
tPA (Homo sapiens) = tPA (Homo sapiens) (UniProt P00750)
Chain of UniProt P00750 (P00750 36-562): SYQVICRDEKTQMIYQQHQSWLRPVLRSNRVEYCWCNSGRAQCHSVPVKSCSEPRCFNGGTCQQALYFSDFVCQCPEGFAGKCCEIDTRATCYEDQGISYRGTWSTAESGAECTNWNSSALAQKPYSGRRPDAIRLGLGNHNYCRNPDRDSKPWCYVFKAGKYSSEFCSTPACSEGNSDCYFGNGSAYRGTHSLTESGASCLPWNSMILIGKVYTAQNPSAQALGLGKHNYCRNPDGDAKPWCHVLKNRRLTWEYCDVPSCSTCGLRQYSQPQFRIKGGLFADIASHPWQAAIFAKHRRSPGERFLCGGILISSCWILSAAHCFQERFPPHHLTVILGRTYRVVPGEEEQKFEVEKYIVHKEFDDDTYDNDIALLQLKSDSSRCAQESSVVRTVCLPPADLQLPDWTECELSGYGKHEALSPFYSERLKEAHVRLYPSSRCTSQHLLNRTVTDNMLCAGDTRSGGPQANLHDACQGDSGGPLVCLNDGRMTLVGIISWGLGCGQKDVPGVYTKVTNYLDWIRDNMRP

Chain of UniProt P00747 (P00747 20-810): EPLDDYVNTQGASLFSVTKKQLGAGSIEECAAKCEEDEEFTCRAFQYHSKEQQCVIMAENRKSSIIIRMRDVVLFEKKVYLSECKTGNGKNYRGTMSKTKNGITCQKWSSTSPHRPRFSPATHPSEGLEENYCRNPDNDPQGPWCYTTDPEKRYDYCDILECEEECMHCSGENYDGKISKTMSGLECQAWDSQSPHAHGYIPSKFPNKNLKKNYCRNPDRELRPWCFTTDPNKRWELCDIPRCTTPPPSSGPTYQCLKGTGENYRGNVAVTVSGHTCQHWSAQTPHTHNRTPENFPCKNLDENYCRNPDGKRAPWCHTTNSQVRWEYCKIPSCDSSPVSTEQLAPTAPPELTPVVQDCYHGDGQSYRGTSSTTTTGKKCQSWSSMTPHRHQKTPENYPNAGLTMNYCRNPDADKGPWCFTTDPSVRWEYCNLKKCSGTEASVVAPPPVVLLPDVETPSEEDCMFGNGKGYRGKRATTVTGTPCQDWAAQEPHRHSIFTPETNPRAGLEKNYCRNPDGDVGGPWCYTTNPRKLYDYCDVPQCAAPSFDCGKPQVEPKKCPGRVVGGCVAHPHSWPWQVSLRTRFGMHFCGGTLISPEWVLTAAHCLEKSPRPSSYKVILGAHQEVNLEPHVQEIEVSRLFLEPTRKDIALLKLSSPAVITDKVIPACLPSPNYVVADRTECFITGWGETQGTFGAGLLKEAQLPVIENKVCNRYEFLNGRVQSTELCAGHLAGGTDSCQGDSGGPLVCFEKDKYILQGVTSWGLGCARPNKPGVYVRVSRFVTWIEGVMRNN

In the case of “Fibrin alpha chain 148-160 (from UniProt P02671)”, the Kd [1] is listed as 1000 nM and the Kd (tPA (Homo sapiens)) is listed as 1000 nM.
